Assay results from article doi:10.1101/2025.11.17.688798, “Engineering directional phosphoryl flow enables programmable signaling dynamics in bacteria” (bioRxiv, 2025).

B1: Spo0B (enzyme, B. subtilis, UniProt P06535 1-192, looked up)
chain: MKDVSKNQEENISDTALTNELIHLLGHSRHDWMNKLQLIKGNLSLQKYDRVFEMIEEMVIDAKHESKLSNLKTPHLAFDFLTFNWKTHYMTLEYEVLGEIKDLSAYDQKLAKLMRKLFHLFDQAVSRESENHLTVSLQTDHPDRQLILYLDFHGAFADPSAFDDIRQNGYEDVDIMRFEITSHECLIEIGLD
notes: Spo0B, sporulation phosphotransferase of B. subtilis; Two protomers of Spo0B stand in the complex; the Spo0B dimer of PDB 1IXM was the search probe; also called phosphotransferase Spo0B; transferase; source: E. coli BL21 (DE3) pLysS, purified (HisTrap IMAC, TEV cleavage, reverse IMAC, Superdex 75 SEC); not shown: His6, N-terminal, cleaved
B2: Spo0A-REC (domain or fragment, B. subtilis, UniProt P06534 1-123, looked up)
chain: MEKIKVCVADDNRELVSLLSEYIEGQEDMEVIGVAYNGQECLSLFKEKDPDVLVLDIIMPHLDGLAVLERLRESDLKKQPNVIMLTAFGQEDVTKKAVDLGASYFILKPFDMENLVGHIRQVS
notes: PDB 1QMP (Spo0A receiver domain) was the search probe; also called Spo0A receiver domain; A3; source: E. coli BL21 (DE3) pLysS, purified (HisTrap IMAC, TEV cleavage, reverse IMAC, Superdex 75 SEC); not shown: His6, N-terminal, cleaved

Experiments:
[1] = biological target: the molecule itself; test: crystal structure; purified Spo0B and Spo0A-REC mixed at 1:1.1 equivalents with 10 mM MgCl2 in 20 mM Tris-HCl pH 8.0, 0.1 M NaCl; sitting-drop vapour diffusion at 293 K; two crystal forms, 2.1 and 3.5 Å
Spo0B = biological target: B1; test: as above; details: both partners purified

B1: binds [1].

With B2 the “stoichiometry N” value (Spo0B) was 1 RR per phosphotransferase chain (printed as 2:2).
